B1: Phospholipid-transporting ATPase IG (Homo sapiens), Q8NB49 (parent)
chain: MQMVPSLPPASECAGEEKRVGTRTVFVGNHPVSETEAYIAQRFCDNRIVSSKYTLWNFLPKNLFEQFRRIANFYFLIIFLVQVTVDTPTSPVTSGLPLFFVITVTAIKQGYEDCLRHRADNEVNKSTVYIIENAKRVRKESEKIKVGDVVEVQADETFPCDLILLSSCTTDGTCYVTTASLDGESNCKTHYAVRDTIALCTAESIDTLRAAIECEQPQPDLYKFVGRINIYSNSLEAVARSLGPENLLLKGATLKNTEKIYGVAVYTGMETKMALNYQGKSQKRSAVEKSINAFLIVYLFILLTKAAVCTTLKYVWQSTPYNDEPWYNQKTQKERETLKVLKMFTDFLSFMVLFNFIIPVSMYVTVEMQKFLGSFFISWDKDFYDEEINEGALVNTSDLNEELGQVDYVFTDKTGTLTENSMEFIECCIDGHKYKGVTQEVDGLSQTDGTLTYFDKVDKNREELFLRALCLCHTVEIKTNDAVDGATESAELTYISSSPDEIALVKGAKRYGFTFLGNRNGYMRVENQRKEIEEYELLHTLNFDAVRRRMSVIVKTQEGDILLFCKGADSAVFPRVQNHEIELTKVHVERNAMDGYRTLCVAFKEIAPDDYERINRQLIEAKMALQDREEKMEKVFDDIETNMNLIGATAVEDKLQDQAAETIEALHAAGLKVWVLTGDKMETAKSTCYACRLFQTNTELLELTTKTIEESERKEDRLHELLIEYRKKLLHEFPKSTRSFKKAWTEHQEYGLIIDGSTLSLILNSSQDSSSNNYKSIFLQICMKCTAVLCCRMAPLQKAQIVRMVKNLKGSPITLSIGDGANDVSMILESHVGIGIKGKEGRQAARNSDYSVPKFKHLKKLLLAHGHLYYVRIAHLVQYFFYKNLCFILPQFLYQFFCGFSQQPLYDAAYLTMYNICFTSLPILAYSLLEQHINIDTLTSDPRLYMKISGNAMLQLGPFLYWTFLAAFEGTVFFFGTYFLFQTASLEENGKVYGNWTFGTIVFTVLVFTVTLKLALDTRFWTWINHFVIWGSLAFYVFFSFFWGGIIWPFLKQQRMYFVFAQMLSSVSTWLAIILLIFISLFPEILLIVLKNVRRRSARRNLSCRRASDSLSARPSVRPLLLRTFSDESNVL
partner: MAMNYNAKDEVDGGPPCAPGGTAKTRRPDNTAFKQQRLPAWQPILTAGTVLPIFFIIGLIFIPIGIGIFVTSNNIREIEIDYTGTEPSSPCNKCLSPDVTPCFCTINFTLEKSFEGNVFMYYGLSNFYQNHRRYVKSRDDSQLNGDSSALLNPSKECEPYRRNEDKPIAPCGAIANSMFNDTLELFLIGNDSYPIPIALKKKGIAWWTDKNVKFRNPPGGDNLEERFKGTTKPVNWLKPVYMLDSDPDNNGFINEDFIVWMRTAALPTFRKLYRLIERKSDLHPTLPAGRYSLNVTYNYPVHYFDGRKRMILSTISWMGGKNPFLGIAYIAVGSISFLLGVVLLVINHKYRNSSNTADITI
B2: Phospholipid-transporting ATPase IF (Homo sapiens), Q9Y2G3 (parent)
chain: MWRWIRQQLGFDPPHQSDTRTIYVANRFPQNGLYTPQKFIDNRIISSKYTVWNFVPKNLFEQFRRVANFYFLIIFLVQLMIDTPTSPVTSGLPLFFVITVTAIKQGYEDWLRHNSDNEVNGAPVYVVRSGGLVKTRSKNIRVGDIVRIAKDEIFPADLVLLSSDRLDGSCHVTTASLDGETNLKTHVAVPETALLQTVANLDTLVAVIECQQPEADLYRFMGRMIITQQMEEIVRPLGPESLLLRGARLKNTKEIFGVAVYTGMETKMALNYKSKSQKRSAVEKSMNTFLIIYLVILISEAVISTILKYTWQAEEKWDEPWYNQKTEHQRNSSKILRFISDFLAFLVLYNFIIPISLYVTVEMQKFLGSFFIGWDLDLYHEESDQKAQVNTSDLNEELGQVEYVFTDKTGTLTENEMQFRECSINGMKYQEINGRLVPEGPTPDSSEGNLSYLSSLSHLNNLSHLTTSSSFRTSPENETELIKEHDLFFKAVSLCHTVQISNVQTDCTGDGPWQSNLAPSQLEYYASSPDEKALVEAAARIGIVFIGNSEETMEVKTLGKLERYKLLHILEFDSDRRRMSVIVQAPSGEKLLFAKGAESSILPKCIGGEIEKTRIHVDEFALKGLRTLCIAYRKFTSKEYEEIDKRIFEARTALQQREEKLAAVFQFIEKDLILLGATAVEDRLQDKVRETIEALRMAGIKVWVLTGDKHETAVSVSLSCGHFHRTMNILELINQKSDSECAEQLRQLARRITEDHVIQHGLVVDGTSLSLALREHEKLFMEVCRNCSAVLCCRMAPLQKAKVIRLIKISPEKPITLAVGDGANDVSMIQEAHVGIGIMGKEGRQAARNSDYAIARFKFLSKLLFVHGHFYYIRIATLVQYFFYKNVCFITPQFLYQFYCLFSQQTLYDSVYLTLYNICFTSLPILIYSLLEQHVDPHVLQNKPTLYRDISKNRLLSIKTFLYWTILGFSHAFIFFFGSYLLIGKDTSLLGNGQMFGNWTFGTLVFTVMVITVTVKMALETHFWTWINHLVTWGSIIFYFVFSLFYGGILWPFLGSQNMYFVFIQLLSSGSAWFAIILMVVTCLFLDIIKKVFDRHLHPTSTEKAQLTETNAGIKCLDSMCCFPEGEAACASVGRMLERVIGRCSPTHISRSWSASDPFYTNDRSILTLSTMDSSTC
partner: B1 partner
B3: Phospholipid-transporting ATPase IH (Homo sapiens), P98196 (parent)
chain: MDCSLVRTLVHRYCAGEENWVDSRTIYVGHREPPPGAEAYIPQRYPDNRIVSSKYTFWNFIPKNLFEQFRRVANFYFLIIFLVQLIIDTPTSPVTSGLPLFFVITVTAIKQGYEDWLRHKADNAMNQCPVHFIQHGKLVRKQSRKLRVGDIVMVKEDETFPCDLIFLSSNRGDGTCHVTTASLDGESSHKTHYAVQDTKGFHTEEDIGGLHATIECEQPQPDLYKFVGRINVYSDLNDPVVRPLGSENLLLRGATLKNTEKIFGVAIYTGMETKMALNYQSKSQKRSAVEKSMNAFLIVYLCILISKALINTVLKYMWQSEPFRDEPWYNQKTESERQRNLFLKAFTDFLAFMVLFNYIIPVSMYVTVEMQKFLGSYFITWDEDMFDEETGEGPLVNTSDLNEELGQVEYIFTDKTGTLTENNMEFKECCIEGHVYVPHVICNGQVLPESSGIDMIDSSPSVNGREREELFFRALCLCHTVQVKDDDSVDGPRKSPDGGKSCVYISSSPDEVALVEGVQRLGFTYLRLKDNYMEILNRENHIERFELLEILSFDSVRRRMSVIVKSATGEIYLFCKGADSSIFPRVIEGKVDQIRARVERNAVEGLRTLCVAYKRLIQEEYEGICKLLQAAKVALQDREKKLAEAYEQIEKDLTLLGATAVEDRLQEKAADTIEALQKAGIKVWVLTGDKMETAAATCYACKLFRRNTQLLELTTKRIEEQSLHDVLFELSKTVLRHSGSLTRDNLSGLSADMQDYGLIIDGAALSLIMKPREDGSSGNYRELFLEICRSCSAVLCCRMAPLQKAQIVKLIKFSKEHPITLAIGDGANDVSMILEAHVGIGVIGKEGRQAARNSDYAIPKFKHLKKMLLVHGHFYYIRISELVQYFFYKNVCFIFPQFLYQFFCGFSQQTLYDTAYLTLYNISFTSLPILLYSLMEQHVGIDVLKRDPTLYRDVAKNALLRWRVFIYWTLLGLFDALVFFFGAYFVFENTTVTSNGQIFGNWTFGTLVFTVMVFTVTLKLALDTHYWTWINHFVIWGSLLFYVVFSLLWGGVIWPFLNYQRMYYVFIQMLSSGPAWLAIVLLVTISLLPDVLKKVLCRQLWPTATERVQTKSQCLSVEQSTIFMLSQTSSSLSF
partner: B1 partner
B4: Phospholipid-transporting ATPase VA (Homo sapiens), O60312 (parent)
chain: MEREPAGTEEPGPPGRRRRREGRTRTVRSNLLPPPGAEDPAAGAAKGERRRRRGCAQHLADNRLKTTKYTLLSFLPKNLFEQFHRPANVYFVFIALLNFVPAVNAFQPGLALAPVLFILAITAFRDLWEDYSRHRSDHKINHLGCLVFSREEKKYVNRFWKEIHVGDFVRLRCNEIFPADILLLSSSDPDGLCHIETANLDGETNLKRRQVVRGFSELVSEFNPLTFTSVIECEKPNNDLSRFRGCIIHDNGKKAGLYKENLLLRGCTLRNTDAVVGIVIYAGHETKALLNNSGPRYKRSKLERQMNCDVLWCVLLLVCMSLFSAVGHGLWIWRYQEKKSLFYVPKSDGSSLSPVTAAVYSFLTMIIVLQVLIPISLYVSIEIVKACQVYFINQDMQLYDEETDSQLQCRALNITEDLGQIQYIFSDKTGTLTENKMVFRRCTVSGVEYSHDANAQRLARYQEADSEEEEVVPRGGSVSQRGSIGSHQSVRVVHRTQSTKSHRRTGSRAEAKRASMLSKHTAFSSPMEKDITPDPKLLEKVSECDKSLAVARHQEHLLAHLSPELSDVFDFFIALTICNTVVVTSPDQPRTKVRVRFELKSPVKTIEDFLRRFTPSCLTSGCSSIGSLAANKSSHKLGSSFPSTPSSDGMLLRLEERLGQPTSAIASNGYSSQADNWASELAQEQESERELRYEAESPDEAALVYAARAYNCVLVERLHDQVSVELPHLGRLTFELLHTLGFDSVRKRMSVVIRHPLTDEINVYTKGADSVVMDLLQPCSSVDARGRHQKKIRSKTQNYLNVYAAEGLRTLCIAKRVLSKEEYACWLQSHLEAESSLENSEELLFQSAIRLETNLHLLGATGIEDRLQDGVPETISKLRQAGLQIWVLTGDKQETAVNIAYACKLLDHDEEVITLNATSQEACAALLDQCLCYVQSRGLQRAPEKTKGKVSMRFSSLCPPSTSTASGRRPSLVIDGRSLAYALEKNLEDKFLFLAKQCRSVLCCRSTPLQKSMVVKLVRSKLKAMTLAIGDGANDVSMIQVADVGVGISGQEGMQAVMASDFAVPKFRYLERLLILHGHWCYSRLANMVLYFFYKNTMFVGLLFWFQFFCGFSASTMIDQWYLIFFNLLFSSLPPLVTGVLDRDVPANVLLTNPQLYKSGQNMEEYRPRTFWFNMADAAFQSLVCFSIPYLAYYDSNVDLFTWGTPIVTIALLTFLLHLGIETKTWTWLNWITCGFSVLLFFTVALIYNASCATCYPPSNPYWTMQALLGDPVFYLTCLMTPVAALLPRLFFRSLQGRVFPTQLQLARQLTRKSPRRCSAPKETFAQGRLPKDSGTEHSSGRTVKTSVPLSQPSWHTQQPVCSLEASGEPSTVDMSMPVREHTLLEGLSAPAPMSSAPGEAVLRSPGGCPEESKVRAASTGRVTPLSSLFSLPTFSLLNWISSWSLVSRLGSVLQFSRTEQLADGQAGRGLPVQPHSGRSGLQGPDHRLLIGASSRRSQ
partner: B1 partner

Variants of: B1
Details: with cc50a_human TMEM30A

Variant	effect of a mutation on the interaction
E184Q	increasing interaction strength
D412N	disrupting interaction strength
G183L	disrupting interaction strength

Variants of: B2
Details: with cc50a_human TMEM30A

Variant	effect of a mutation on the interaction
E180Q	increasing interaction strength
D407N	disrupting interaction strength
G179L	decreasing interaction strength

Variants of: B3
Details: with cc50a_human TMEM30A

Variant	effect of a mutation on the interaction
D414N	disrupting interaction strength
G185L	disrupting interaction strength
E186Q	increasing interaction strength

Variants of: B4
Details: with cc50a_human TMEM30A

Variant	effect of a mutation on the interaction
E203Q	increasing interaction strength
G202L	disrupting interaction strength
D427N	disrupting interaction strength

— IntAct's records for PubMed 31571211
